Test results reported in patent publication US6949506B2, “Relaxin-like factor and methods and uses thereof” (BAS Medical, Inc., priority 1995, dated 2005).
Positions of bridges follow the written chain, without caps; N, C: chain ends. Chains are numbered I, II in the order given. No end group written: not given here.

Experiments:
[1] = system: collagen expression, rheumatoid synovial fibroblasts (Strain No. RSF64); test: Inhibition of collagen expression by synovial fibroblasts; assay type: cell-based, human
Method: The method for detecting and measuring collagen formation in the presence of relaxin described in Unemori and Amento, 1990, J. Biol. Chem. 265:10681-685 has been modified as follows to determine the ability of RLF, in vitro, to modulate the expression of collagen. Materials and Methods. Rheumatoid synovial fibroblasts (Strain No. […] The cells were simultaneously biosynthetically labelled with ^3H=[…] μCi/ml) in the presence of ascorbate and BAPN. After 24 hours, the conditioned media were collected and electrophoresed on 4-12% polyacrylamide gels (NOVEX) under reducing conditions. Gels were enhanced, dried, and exposed to X-ray films for 1-2 weeks. Collagen bands were identified on the X-ray films as bacterial collagenase-sensitive, proline-incorporating bands between 95-200 kDa. Band density was quantified by scanning densitometry and used as estimates of collagen expression.

[2] = system: crude membrane preparations of leg muscles, kidneys, liver, brain, and uterus; test: Tissue specificity of 125I-RLF binding; set-up: species or system mouse; conditions: skeletal muscle, kidney and liver tested, female estrogen primed mice
Method: FIG. 6. FIG. 6 depicts the tissue distribution of RLF receptors in female estrogen primed mice as measured in vitro in a receptor-binding assay.
Tissue specificity was determined using crude membrane preparations of leg muscles, kidneys, liver. brain, and uterus (of estrogen primed mice). The crude membranes were prepared as described for relaxin. Binding was based on protein concentration determined by Lowry.

[3] = biological target: mouse brain relaxin receptor (mouse); test: displacement of porcine relaxin tracer, mouse brain crude membranes
[4] = biological target: RLF receptor of mouse brain (mouse); test: displacement of 125I-RLF tracer, mouse brain crude membranes; amount of competitor at 50% binding
[5] = biological target: RLF receptor of mouse uterus (mouse); test: displacement of 125I-RLF tracer, mouse uterus crude membranes; amount of competitor at 50% binding
[6] = biological target: mouse brain relaxin receptor (mouse); test: displacement of porcine relaxin tracer, mouse brain crude membranes; amount of competitor at 50% binding
[7] = biological target: mouse uterine relaxin receptor (mouse); test: displacement of porcine relaxin tracer, mouse uterus crude membranes; amount of competitor at 50% binding
Sequence of mouse uterine relaxin receptor (mouse) (Q6R6I7 whole entry): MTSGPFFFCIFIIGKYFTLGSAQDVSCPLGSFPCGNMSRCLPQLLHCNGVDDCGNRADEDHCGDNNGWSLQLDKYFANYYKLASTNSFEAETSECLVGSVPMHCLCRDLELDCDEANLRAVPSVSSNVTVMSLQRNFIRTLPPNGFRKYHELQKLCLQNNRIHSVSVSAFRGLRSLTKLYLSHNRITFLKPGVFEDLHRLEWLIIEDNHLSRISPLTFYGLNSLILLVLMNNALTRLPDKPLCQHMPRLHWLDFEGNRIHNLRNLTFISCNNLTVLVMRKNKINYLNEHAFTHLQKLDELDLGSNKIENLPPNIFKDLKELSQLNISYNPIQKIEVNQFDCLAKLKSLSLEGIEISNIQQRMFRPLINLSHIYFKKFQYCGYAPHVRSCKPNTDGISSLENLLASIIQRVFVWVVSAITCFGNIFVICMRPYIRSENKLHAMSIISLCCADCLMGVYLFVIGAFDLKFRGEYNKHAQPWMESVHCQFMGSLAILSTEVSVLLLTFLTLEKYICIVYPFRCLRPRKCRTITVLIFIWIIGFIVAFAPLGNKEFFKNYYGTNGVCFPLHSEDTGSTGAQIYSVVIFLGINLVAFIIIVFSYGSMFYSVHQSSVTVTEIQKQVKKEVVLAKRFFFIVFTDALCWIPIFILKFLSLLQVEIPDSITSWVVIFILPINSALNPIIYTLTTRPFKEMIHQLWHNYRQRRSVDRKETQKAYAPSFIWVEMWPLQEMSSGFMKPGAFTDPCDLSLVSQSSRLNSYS

Sequence of RLF receptor of mouse uterus (mouse) (Q91ZZ5 whole entry): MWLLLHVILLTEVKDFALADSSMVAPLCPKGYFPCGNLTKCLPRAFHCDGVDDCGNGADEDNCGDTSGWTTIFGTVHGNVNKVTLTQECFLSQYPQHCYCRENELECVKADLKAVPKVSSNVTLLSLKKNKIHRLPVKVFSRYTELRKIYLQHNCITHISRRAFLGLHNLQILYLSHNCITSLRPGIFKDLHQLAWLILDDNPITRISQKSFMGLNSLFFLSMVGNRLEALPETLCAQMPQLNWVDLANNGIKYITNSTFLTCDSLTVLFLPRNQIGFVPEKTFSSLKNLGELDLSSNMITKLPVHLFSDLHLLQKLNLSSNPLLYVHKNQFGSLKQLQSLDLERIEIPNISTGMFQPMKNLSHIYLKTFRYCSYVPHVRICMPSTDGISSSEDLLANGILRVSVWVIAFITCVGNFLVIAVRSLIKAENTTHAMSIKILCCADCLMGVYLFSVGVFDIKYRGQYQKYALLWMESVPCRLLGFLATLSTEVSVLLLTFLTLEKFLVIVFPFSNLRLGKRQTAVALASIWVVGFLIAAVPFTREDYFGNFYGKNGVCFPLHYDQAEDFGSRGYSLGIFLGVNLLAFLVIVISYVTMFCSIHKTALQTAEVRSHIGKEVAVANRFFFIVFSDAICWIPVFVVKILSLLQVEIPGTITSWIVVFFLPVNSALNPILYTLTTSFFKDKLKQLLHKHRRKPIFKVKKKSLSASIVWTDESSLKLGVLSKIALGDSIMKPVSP

| excess that displaces 50% of the relaxin tracer [3] [fold excess] | 50% Binding [4] [ng] | 50% Binding [5] [ng] | 50% Binding [6] [ng] | 50% Binding [7] [ng] | Molecule | increase of collagen expression over untreated fibroblasts [1] [fold] | tissues showing specific binding [2] |
| --- | --- | --- | --- | --- | --- | --- | --- |
|  |  |  |  |  | TGF-β [reference compound] | 3.75 |  |
|  |  |  |  |  | ^125I-RLF: 125I-labeled RLF used as tracer (chain 1 AAATNPARYCCLSGCTQQDLLTLCPY; chain 2 PTPEMREKLCGHHFVRALVRVCGGPRWSTEA; disulfide I:11-II:10; cysteine pairing not given here; also: 125I-labeled (site not given here)) |  | only the brain- and the uterus membrane preparation showed specific binding |
| 100 | 0.3 | 0.3 | 200 | 10000 | human relaxin-like factor (RLF), synthetic (ligand) chain 1: AAATNPARYCCLSGCTQQDLLTLCPY chain 2: PTPEMREKLCGHHFVRALVRVCGGPRWSTEA |  |  |
|  | 1000 | 800 | 1 | 1 | human relaxin (ligand) chain 1: QLYSALANKCCHVGCTKRSLARFC chain 2: DSWMEEVIKLCGRELVRAQIAICGMSTWS |  |  |
